Where a chain is given by its changes, count along the chain named. Names may count otherwise.
T1: FcγRIIb (human, UniProt P31994 43-217, limits assumed)
T1 construct: also called FcγIIB; FcgRIIb
T1 sequence: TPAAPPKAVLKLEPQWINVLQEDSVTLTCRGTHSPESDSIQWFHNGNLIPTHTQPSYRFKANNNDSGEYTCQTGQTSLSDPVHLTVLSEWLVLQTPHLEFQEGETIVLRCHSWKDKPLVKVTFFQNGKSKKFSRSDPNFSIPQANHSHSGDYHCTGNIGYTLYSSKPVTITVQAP

T2: FcγRIIa type H (human, UniProt P12318 36-217)
T2 construct: also called FcγRIIaH; FcγRIIa(H)
T2 sequence: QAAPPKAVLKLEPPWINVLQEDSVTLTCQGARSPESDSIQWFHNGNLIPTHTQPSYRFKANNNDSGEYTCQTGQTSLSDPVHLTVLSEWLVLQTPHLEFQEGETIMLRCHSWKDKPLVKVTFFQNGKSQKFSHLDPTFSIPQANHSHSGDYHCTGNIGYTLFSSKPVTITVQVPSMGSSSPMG

T3: human FcγRIIb (human, UniProt P31994 43-217, limits assumed)
T3 construct: also called FcγIIB; hFcgRIIb
T3 sequence: T1 sequence

T4: human FcγRIIa type R (human, UniProt P12318 36-217)
T4 construct: also called Fcγ RIIaR; FcγRIIa(R)
T4 chain: T2 sequence with H133R

T5: human FcγRIIb (human, UniProt P31994 43-217)
T5 construct: also called FcγIIB; FcγRIIb extracellular region
T5 sequence: T1 sequence

B1: IL6R-BP148/IL6R-L (antibody, human IgG1)
heavy: QVQLQESGPGLVKPSETLSLTCAVSGHSISHDHAWSWVRQPPGEGLEWIGFISYSGITNYNPSLQGRVTISRDNSKNTLYLQMNSLRAEDTAVYYCARSLARTTAMDYWGEGTLVTVSSASTKGPSVFPLAPSSKSTSGGTAALGCLVKDYFPEPVTVSWNSGALTSGVHTFPAVLQSSGLYSLSSVVTVPSSSLGTQTYICNVNHKPSNTKVDKKVEPKSCDKTHTCPPCPAPDYLGDDSVFLFPPKPKDTLMISRTPEVTCVVVDVSHEDPEVKFNWYVDGVEVHNAKTKPREEQYNSTYRVVSVLTVLHQDWLNGKEYKCKVSNAALPKPIEKTISKAKGQPREPQVYTLPPSRDELTKNQVSLTCLVKGFYPSDIAVEWESNGQPENNYKTTPPVLDSDGSFFLYSKLTVDKSRWQQGNVFSCSVMHEALHNHYTQESLSLSP
light: DIQMTQSPSSLSASVGDRVTITCRASQDISSYLNWYQQKPGKAPKLLIYYTSRLHSGVPSRFSGSGSGTDFTFTISSLQPEDIATYYCQQGNTLPYTFGQGTKVEIK
notes: EU numbering
B2: IL6R-BP177/IL6R-L (antibody, human IgG1)
heavy: B1 heavy with P273G, A328D
light: B1 light
notes: EU numbering
B3: IL6R-BP151/IL6R-L (antibody, human IgG1)
heavy: B1 heavy with K332R
light: B1 light
notes: EU numbering
B4: IL6R-BP150/IL6R-L (antibody, human IgG1)
heavy: B1 heavy with D235E, K332R
light: B1 light
notes: EU numbering
B5: IL6R-BP176/IL6R-L (antibody, human IgG1)
heavy: B1 heavy with Y236L, D239G, A328D
light: B1 light
notes: EU numbering
B6: IL6R-BP178/IL6R-L (antibody, human IgG1)
heavy: B1 heavy with Y236L, P273G, A328K
light: B1 light
notes: EU numbering
B7: IL6R-BP181/IL6R-L (antibody, human IgG1)
heavy: B1 heavy with Y236L, D239G, P273G
light: B1 light
notes: EU numbering
B8: IL6R-BP206/IL6R-L (antibody, human IgG1)
heavy: B1 heavy with Y236L, D239G, P273G, A328K, K332R
light: B1 light
notes: Anti-human IL-6 receptor IgG1 Fc variant
B9: IL6R-BP211/IL6R-L (antibody, human IgG1)
heavy: B1 heavy with Y236L, D239G, H270D, P273G, K332R
light: B1 light
notes: as for B8
B10: IL6R-BP203/IL6R-L (antibody, human IgG1)
heavy: B1 heavy with D235E, Y236L, P273G, A328K, K332R
light: B1 light
notes: as for B8
B11: F1060 (antibody, human IgG1, kappa, name in EU numbering)
heavy: QVQLQESGPGLVKPSETLSLTCAVSGHSISHDHAWSWVRQPPGEGLEWIGFISYSGITNYNPSLQGRVTISRDNSKNTLYLQMNSLRAEDTAVYYCARSLARTTAMDYWGEGTLVTVSSASTKGPSVFPLAPSSKSTSGGTAALGCLVKDYFPEPVTVSWNSGALTSGVHTFPAVLQSSGLYSLSSVVTVPSSSLGTQTYICNVNHKPSNTKVDKKVEPKSCDKTHTCPPCPAPELLGGPSVFLFPPKPKDTLYISRTPEVTCVVVDVSHEDPEVKFNWYVDGVEVHNAKTKPREEQYNSTYRVVSVLTVLHQDWLNGKEYKCKVSNKALPAPIEKTISKAKGQPREPQVYTLPPSRDELTKNQVSLTCLVKGFYPSDIAVEWESNGSPENNYKTTPPVLDSDGSFFLYSKLTVDKSRWQQGNVFSCSVMHEALHYHVTQKSLSLSP
light: not shown
notes: copies: 2 + 2
B12: F1072 (antibody, name in EU numbering)
heavy: B11 heavy with S388Q, S442E
light: not shown
notes: copies: 2 + 2
B13: F1078 (antibody, human IgG1, kappa, name in EU numbering)
heavy: B11 heavy with E382N, E384S, S388Q, V438Y
light: not shown
notes: copies: 2 + 2
B14: F1071 (antibody, human IgG1, kappa, name in EU numbering)
heavy: B11 heavy with S388Q, Q440S
light: not shown
notes: copies: 2 + 2
B15: F1099 (antibody, human IgG1, kappa, name in EU numbering)
heavy: B11 heavy with K328D, L330Y, S388Q, V438Y
light: not shown
notes: copies: 2 + 2
B16: F1076 (antibody, human IgG1, kappa, name in EU numbering)
heavy: B11 heavy with S241D, K328D, L330Y, S388Q
light: not shown
notes: copies: 2 + 2
B17: F1079 (antibody, human IgG1, kappa, name in EU numbering)
heavy: B11 heavy with E384N, N386S, S388Q, V438Y
light: not shown
notes: copies: 2 + 2
B18: IL6R-BP086/IL6R-L (antibody, human IgG1)
heavy: B1 heavy with D235E, Y236L, D239G
light: B1 light
notes: copies: 2 + 2
B19: IL6R-G1d/IL6R-L (antibody, human IgG1)
heavy: not shown
light: B1 light
notes: Anti-human IL-6 receptor IgG1 with the G1d constant region (C-terminal Gly and Lys removed); template used for producing IL6R-B3; also called IgG1; copies: 2 + 2
B20: IL6R-BP145/IL6R-L (antibody, human IgG1)
heavy: B1 heavy with D235E, A328K, K332A
light: B1 light
notes: copies: 2 + 2
B21: IL6R-BP088/IL6R-L (antibody, human IgG1)
heavy: B1 heavy with D235E, Y236L
light: B1 light
notes: copies: 2 + 2
B22: IL6R-BP130/IL6R-L (antibody, human IgG1)
heavy: B1 heavy with Y236L, D239G, V325M, A328K
light: B1 light
notes: copies: 2 + 2
B23: IL6R-PD097/IL6R-L (antibody, human IgG1)
heavy: B11 heavy with P240D, S241D, S388Q, V438Y
light: B1 light
notes: PD variant: P238D/S239D introduced into IL6R-F11 (EU numbering); copies: 2 + 2

Each binder was assayed against T1, FcγRIIb (assay: ratio of SPR KD values of this variant (FcγRIIaR over FcγRIIb)).
Excerpt: (§1) Furthermore, KD(IIaR)/KD(IIb) and KD(IIaH)/KD(IIb) in the table respectively represent the value obtained by dividing the KD value of each variant for FcγRIIaR by the KD value of each variant for FcγRIIb, and the value obtained by dividing the KD value of each variant for FcγRIIaH by the KD value of each variant for FcγRIIb.

Binder | KD (IIaR)/KD (IIb)
B1 | 14.5
B2 | 13.6
B3 | 16.9
B4 | 17.7
B5 | 19.1
B6 | 18.1
B7 | 20.3

These binders were tested against T6, FcγRIIIa type V (human, UniProt P08637 17-208, limits assumed) (assay: SPR (Biacore), antibody captured on chip, FcγR as analyte, method of Example 14).
T6 construct: Soluble analyte in Biacore; also called FcγRIIIaV; FcγRIIIa(V)
T6 sequence (P08637 other isoform, or with tags, fused parts or gaps limits assumed): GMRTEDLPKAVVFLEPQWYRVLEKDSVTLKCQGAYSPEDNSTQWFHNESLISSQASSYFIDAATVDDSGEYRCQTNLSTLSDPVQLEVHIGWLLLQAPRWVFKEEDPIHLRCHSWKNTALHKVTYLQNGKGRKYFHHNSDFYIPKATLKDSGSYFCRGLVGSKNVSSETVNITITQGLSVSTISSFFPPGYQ
Description: Next, interaction between these antibodies and FcγR was analyzed kinetically using the Biacore T100 (GE Healthcare). The interaction was measured at a temperature of 25° C. using HBS-EP+ (GE Healthcare) for the running buffer. The Series S Sensor Chip CM5 (GE Healthcare) was used after immobilizing Protein A by amine coupling. […] Antibody captured on the chip was washed by allowing 10 mM glycine-HCl (pH 1.5) to react following measurement. The chip regenerated in this manner was used repeatedly. The dissociation constant KD (mol/L) was calculated from the association rate constant ka (L/mol/s) and dissociation rate constant kd (1/s) as calculated by global-fitting the measurement results with a 1:1 Langmuir binding model using the Biacore

Binder | Kd [µM]
B8 | 69
B9 | 75
B10 | 72

These binders were tested against T2, FcγRIIa type H (assay: SPR (Biacore), captured antibody, FcγR as analyte, method of Example 14).

Binder | Kd [nM]
B1 | 9000
B2 | 6200
B5 | 3000
B6 | 1400
B7 | 2600

The binders below were run against T1, FcγRIIb (assay: ratio of SPR KD values of this variant (FcγRIIaH over FcγRIIb)).
Excerpt: as §1

Binder | KD (IIaH)/KD (IIb)
B1 | 93.8
B2 | 159
B3 | 118
B4 | 109
B5 | 83.1
B6 | 272
B7 | 182

What follows are binders tested against T7, human FcRn (human) (assay: SPR (Biacore), pH 7.0, 25 C, antibody captured by Protein L, human FcRn as analyte).
T7 construct: also called hFcRn; soluble human FcRn complexed with β2-microglobulin
T7 sequence (chain, as listed by the source limits assumed, chain 1 of 2): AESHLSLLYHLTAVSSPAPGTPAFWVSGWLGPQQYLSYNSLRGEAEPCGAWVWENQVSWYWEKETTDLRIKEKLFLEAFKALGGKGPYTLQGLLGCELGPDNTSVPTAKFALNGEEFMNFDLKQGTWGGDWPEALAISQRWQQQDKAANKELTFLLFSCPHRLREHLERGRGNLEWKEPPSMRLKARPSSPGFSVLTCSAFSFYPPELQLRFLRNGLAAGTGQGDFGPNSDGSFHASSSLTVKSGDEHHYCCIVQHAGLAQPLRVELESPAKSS
T7 sequence (P61769 21-119 limits assumed, chain 2 of 2): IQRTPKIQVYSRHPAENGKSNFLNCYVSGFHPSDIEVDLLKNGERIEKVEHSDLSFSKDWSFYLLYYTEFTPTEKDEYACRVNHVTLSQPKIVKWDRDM
Description: A kinetic analysis of binding between human FcRn and the aforementioned antibodies was carried out using the Biacore T100 or T200 (GE Healthcare). The antibodies being tested were captured on the CM4 Sensor Chip (GE Healthcare) on which a suitable amount of Protein L (ACTIGEN) was suitably immobilized by amine coupling. Next, diluted human FcRn and a running buffer used as a blank were injected to allow the human FcRn to interact with the antibody captured on the sensor chip. A buffer consisting of 50 mmol/L sodium phosphate, 150 mmol/L NaCl and 0.05% (w/v) Tween 20 (pH 7.0 or pH 7.4) was used for the running buffer, and each buffer was also used to dilute the human FcRn. 10 mmol/L glycine-HCl (pH 1.5) was used to regenerate the sensor chip. All measurements of binding were carried out at 25° C. The KD(M) of each antibody to human FcRn was calculated based on kinetics parameters, i.e., the association rate constant ka (1/Ms) and the dissociation rate constant kd (1/s) calculated from a sensorgram obtained by the measurement. The Biacore T100 or T200 Evaluation Software (GE Healthcare) was used to calculate each parameter.

Binder | Kd [nM]
B11 | 143
B12 | 135
B13 | 470
B14 | 124
B15 | 257
B16 | 127
B17 | 344

The binders below were run against T3, human FcγRIIb (assay: ratio of this variant's SPR KD for FcγRIIaH to its KD for FcγRIIb).
Excerpt: as §1

Binder | KD (IIaH)/KD (IIb)
B18 | 89.9
B19 | 0.3
B20 | 49.9
B21 | 106
B22 | 55.5

Biological target: T4, human FcγRIIa type R
Experiment: SPR (Biacore), antibody captured on chip, FcγR as analyte; binding amount divided by that of IL6R-F652/IL6R-L, times 100

Binder | relative binding activity for FcγRIIaR
B23 | 844 % of the binding amount of IL6R-F652/IL6R-L

These binders were tested against T5, human FcγRIIb in the same assay as above.

Binder | relative binding activity for FcγRIIb
B23 | 139 % of the binding amount of IL6R-F652/IL6R-L

The binders below were run against T3, human FcγRIIb (assay: ratio of this variant's SPR KD for FcγRIIaR to its KD for FcγRIIb).
Excerpt: as §1

Binder | KD (IIaR)/KD (IIb)
B18 | 17.1
B19 | 0.4
B20 | 9.9
B21 | 13.3
B22 | 17.5
